Measurements reported in patent US20240084005A1 (ALLAKOS, published 2024).
Numbering of substitutions follows the chain as printed.

B1: AK20 (wild-type human IgG1 Fc) (antibody, V domains shown)
VH: QVQLQESGPGLVKPSETLSLTCTVSGFSLTSYGVSWIRQPPGKGLEWIGVIWHDGSTSYHPSLKSRVTISRDTSKNQVSLKLSSVTAADTAVYYCASDGYSGTFAYWGQGTLVTVSS
VL: QIVVTQSPATLSLSPGERATLSCTASSSVSSSYLHWYQQKPGQAPRLLIYSTSILASGIPARFSGSGSGTDFTLTISSLQPEDFAVYYCHQYHRSPYTFGQGTKLEIK
notes: Tested after forced degradation
B2: AK21 (wild-type human IgG1 Fc) (antibody, V domains shown)
VH: B1 VH with T30S, S58N, H60N
VL: B1 VL
notes: as for B1
B3: AK10 (antibody, V domains shown)
VH: EVQLQQSGPELMKPGASVKISCKASGYTFTDYYMNWVKQSHGKSLEWIGDINPKIGDTIYNQKFKGKATLTVDKSSSTAYMELRSLTSEDSAVYYCARWDYYGSSLFDYWGQGTTLTVSS
VL: DIVMTQSHKFMSTSVGDRVSITCKASQDVTTAVAWYQQKPGQSPKLLIYWASTRHTGVPDRFTGTGSGTDYTLTISNVQAEDLALYYCQQHYSTPYTFGGGTKLEIK
notes: also called anti-Siglec-6 mAb AK10

Tests used:
[1] = target: T1, Siglec-6 (antigen of Example 8) (human, UniProt O43699 27-347, limits assumed); test: Siglec-6 binding ELISA after 2 weeks of forced degradation (elevated temperature, low pH)
Protocol: AK20 and AK21 were further evaluated in a forced degradation stability study. AK20 and AK21 (both using a wild-type human IgG1 Fc region with normal fucosylation) were incubated for 2 weeks at elevated temperatures and low pH followed by assessment of activity using a Siglec-6 binding ELISA.

[2] = target: T1, Siglec-6 (antigen of Example 8); test: Siglec-6 binding ELISA after 1 week of forced degradation (elevated temperature, low pH); 1 week of forced degradation (elevated temperatures and low pH)
[3] = target: T1, Siglec-6 (antigen of Example 8); test: Siglec-6 binding ELISA after 1 week of forced degradation (elevated temperature, low pH)
Siglec-6 ECD Fc protein = target: T2, Siglec-6 ECD Fc protein (human, UniProt O43699 27-347); test: BLI (Octet Red 384), bivalent IgG on immobilized Siglec-6 ECD Fc
T2 construct: also called Siglec-6 full ECD fused to a human Fc; not shown: human Fc
Protocol: Bivalent binding affinities of IgG for Siglec-6 mAbs were measured by biolayer interferometry using a FortéBio Octet Red 384 instrument using immobilized Siglec-6 ECD Fc protein.

[4] = target: T3, Siglec-6 domain 1 fused to a human Fc (human, UniProt O43699 27-147); test: ELISA on Siglec-6 domain-human Fc fusions (Domain Mapping = 2)
T3 construct: also called domain 1 fusion protein; not shown: human Fc
Protocol: Domain mapping was assessed by ELISA using recombinantly expressed Siglec-6 extracellular domains fused to a human Fc containing the full ECD, domains 1 and 2, or domain 1. Siglec-6 mAbs were tested for binding to each of these domain fusion proteins and assigned domains based on their specific binding properties. Siglec-6 mAbs that bound to all three fusion proteins were assigned domain 1 binders, mAbs that bound to full ECD and domains 1 and 2 were assigned domain 2 binders, and mAbs that bound to only the full ECD protein were assigned domain 3 binders.

T1 sequence (O43699 27-347 limits assumed): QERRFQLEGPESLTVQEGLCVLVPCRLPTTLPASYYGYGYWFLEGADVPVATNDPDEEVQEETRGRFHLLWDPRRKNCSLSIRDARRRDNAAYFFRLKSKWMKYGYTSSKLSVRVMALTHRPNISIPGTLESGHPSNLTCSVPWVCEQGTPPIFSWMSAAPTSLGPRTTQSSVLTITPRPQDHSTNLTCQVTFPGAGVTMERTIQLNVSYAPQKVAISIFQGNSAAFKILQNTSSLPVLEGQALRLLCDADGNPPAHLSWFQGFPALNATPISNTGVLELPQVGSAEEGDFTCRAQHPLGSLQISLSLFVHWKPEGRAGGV
T2 sequence (O43699 27-347): as the sequence (O43699 27-347 limits assumed) above
T3 sequence (O43699 27-147 limits assumed): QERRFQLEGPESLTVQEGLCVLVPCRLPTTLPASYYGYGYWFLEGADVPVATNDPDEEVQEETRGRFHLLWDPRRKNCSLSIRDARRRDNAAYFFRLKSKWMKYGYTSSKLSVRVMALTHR

Binder	EC50 [1]	EC50 [2]	EC50 [3]	Kd (Siglec-6 ECD Fc protein)	binding result [4]
B1	6.4 ng/mL	6.5 ng/mL	–	–	–
B2	9.3 ng/mL	–	9.1 ng/mL	–	–
B3	–	–	–	0.084 nM	no binding
